We go through 1 substance from PMC7896056.

For test [1], the target named is SIRT1 (183–510+GS+641–665) (human) (UniProt Q96EB6). Briefly: ITC; Ac-p53 peptide (500 μM) titrated into 10 μM SIRT1 (183–510+GS+641–665) in the presence of 0.2 mM resveratrol; 25 °C; 20 mM HEPES pH 7.4, 150 mM NaCl, 0.5% ethanol; one-site model. (In general: In ITC the heat of successive injections is recorded.)
For test [2] the target is unchanged. Briefly: ITC; Ac-p53 peptide (500 μM) titrated into 10 μM SIRT1 (183–510+GS+641–665) in the presence of 0.2 mM KPMF-8; 25 °C; 20 mM HEPES pH 7.4, 150 mM NaCl, 0.5% ethanol; one-site model.
The target is the same in test [3]. Briefly: ITC; Ac-p53 peptide (500 μM) titrated into 10 μM SIRT1 (183–510+GS+641–665), no activator; 25 °C; 20 mM HEPES pH 7.4, 150 mM NaCl, 0.5% ethanol; one-site model.

UniProt Q96EB6, sequence (Q96EB6 other isoform, or with tags, fused parts or gaps): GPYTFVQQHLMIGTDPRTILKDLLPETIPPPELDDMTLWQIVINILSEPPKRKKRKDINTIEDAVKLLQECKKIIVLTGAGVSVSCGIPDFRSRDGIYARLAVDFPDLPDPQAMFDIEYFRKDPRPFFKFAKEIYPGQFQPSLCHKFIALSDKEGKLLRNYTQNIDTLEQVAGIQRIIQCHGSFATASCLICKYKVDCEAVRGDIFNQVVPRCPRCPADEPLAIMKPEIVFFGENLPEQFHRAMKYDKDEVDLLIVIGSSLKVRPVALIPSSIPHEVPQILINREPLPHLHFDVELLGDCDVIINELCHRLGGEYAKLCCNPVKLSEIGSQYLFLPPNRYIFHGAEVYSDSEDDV

Turning to native Ac-p53 peptide, the results for the Kd in test [1], in test [2] and in test [3] were 38.8 µM, 6.67 µM and 55 µM, respectively.

A word on the Kd: it is a measure of binding affinity in units of concentration.
